Values belong to the molecule of their own block, whether it stands above or below them.
Columns and labels:
human brain capillaries = assay: Accumulation/uptake of [125I]-p97 in isolated human brain capillaries; type: binding; details: for Inhibition of [125I]-p97 binding/accumulation in human brain capillaries: competitor 5 micromolar, 100 nM p97, 1 h at 37° C. (FIG. 5)
Procedure: FIG. 5. Accumulation of p97 in human brain capillaries. Accumulation of [^125I]-p97 was measured at 37° C. for 1 h in isolated human brain capillaries (100 μg/assay). The incubation medium contained [^125I]-p97 and a final concentration of 100 nM p97 in Ringer/Hepes solution. The accumulation of [^125I]-p97 was performed in the presence or absence of 5 μm cold-p97, holo-transferrin or lactoferrin. […] The suspension was filtered under vacuum through a […] pore size Millipore filter. The filter was rinsed with 8 ml of stop solution, and the radioactivity was counted. Nonspecific binding of the radioactivity to the capillaries was determined by the addition of the ice-cold stop solution to the capillaries before adding the incubation medium. This value was subtracted from accumulation values obtained following an 1 h incubation. The results were expressed as ng of [^125I]-p97 accumulated per μg of brain capillaries.
FIG. 16 illustrates the identification of a p97 receptor according to ligand specificity. FIG. 16a, Uptake of [^125I]-p97 into human brain capillaries. The uptake of [^125I]-p97 at 100 nM (control) into isolated human brain capillaries was measured for 1 h at 37° C. in the presence of a 50-fold molar excess of unlabelled p97, human holo-transferrin or human lactoferrin. (*[…] Student's t-test (n=5); FIG. 16b, Effect of RAP on [^125I]-p97 transcytosis across BBCEC monolayers. Apical-to-basal transport of [^125I]-p97 was measured in the presence (closed circles) or absence (open circles) of RAP (25 μg/ml) (n=5); FIG. 16c, Inhibition of bovine [^125I]-lactoferrin transport by p97. Transcytosis of bovine [^125I]-lactoferrin (50 nM) was measured in the presence (closed circles) or absence (open circles) of unlabelled p97 (5 μM) at 37° C. (n=3).
A. Isolation of human brain capillaries. […]
B. p97 accumulation in human brain capillaries. […] Accumulation of [^125I]-p97 was measured at 37° C. for 1 h in isolated human brain capillaries (100 μg/assay). […]

[1] = system: bovine brain capillary endothelial cell monolayers; assay: Competition of [125I]-p97 binding on bovine brain capillary endothelial cell monolayers; details: [125I]-p97 25 nM, 2 h at 4° C., competitor 7.5 micromolar (FIG. 3)
Procedure: FIG. 3. Binding of p97 on bovine brain capillary endothelial cell monolayers. Binding p97 was performed with BBCECs that were pre-incubated 2 hrs in Ringer-Hepes to avoid any interference from the astrocytes. For the binding experiments, cells were incubated for 2 h at 4° C. in Ringer/Hepes in the presence of [^125I]-p97 (25 nM) and 7.5 micromolar concentrations of cold-p97, transferrin or lactoferrin, respectively. At the end of the incubation, the filters were gently washed at 4° C. three times with 4 ml of cold-PBS. Then the associated radioactivity of endothelial cells was determined by removing the membrane of the culture insert and counting it in a gamma counter.
B. Binding studies of p97. Binding of p97 was performed with BBCECs and Rat Brain Endothelial Cells that were pre-incubated 2 hrs in Ringer/Hepes to avoid any interference from the astrocytes.
For the binding experiments, cells were incubated for 2 h at 4° C. in Ringer/Hepes in the presence of [^125I]-p97 (25 nM) and increasing concentrations of cold-p97 or high (7.5 micromolar) concentrations of transferrin or lactoferrin. At the end of the incubation, the filters were gently washed at 4° C. three times with 4 ml of cold-PBS. Then the associated radioactivity of endothelial cells was determined by removing the membrane of the culture insert and counting it in a gamma counter.

Inhibition of [125I]-p97 binding/accumulation in human brain capillaries (human brain capillaries): significantly inhibits
B1: p97: recombinant human melanotransferrin (p97), provided by Synapse Technologies (protein, UniProt P08582 20-709, looked up)
Melanotransferrin: GMEVRWCATSDPEQHKCGNMSEAFREAGIQPSLLCVRGTSADHCVQLIAAQEADAITLDGGAIYEAGKEHGLKPVVGEVYDQEVGTSYYAVAVVRRSSHVTIDTLKGVKSCHTGINRTVGWNVPVGYLVESGRLSVMGCDVLKAVSDYFGGSCVPGAGETSYSESLCRLCRGDSSGEGVCDKSPLERYYDYSGAFRCLAEGAGDVAFVKHSTVLENTDGKTLPSWGQALLSQDFELLCRDGSRADVTEWRQCHLARVPAHAVVVRADTDGGLIFRLLNEGQRLFSHEGSSFQMFSSEAYGQKDLLFKDSTSELVPIATQTYEAWLGHEYLHAMKGLLCDPNRLPPYLRWCVLSTPEIQKCGDMAVAFRRQRLKPEIQCVSAKSPQHCMERIQAEQVDAVTLSGEDIYTAGKTYGLVPAAGEHYAPEDSSNSYYVVAVVRRDSSHAFTLDELRGKRSCHAGFGSPAGWDVPVGALIQRGFIRPKDCDVLTAVSEFFNASCVPVNNPKNYPSSLCALCVGDEQGRNKCVGNSQERYYGYRGAFRCLVENAGDVAFVRHTTVFDNTNGHNSEPWAAELRSEDYELLCPNGARAEVSQFAACNLAQIPPHAVMVRPDTNIFTVYGLLDKAQDLFGDDHNKNGFKMFDSSNYHGQDLLFKDATVRAVPVGEKTTYRGWLGLDYVAALEGMSSQQC
Inhibition of [125I]-p97 binding to BBCECs [1]: competitively inhibited

Inhibition of [125I]-p97 binding/accumulation in human brain capillaries (human brain capillaries): significantly inhibits | Competition with p97 for receptor binding in human brain capillaries, repeat experiment (human brain capillaries; performed identically to FIG. 5 (FIG. 6)): competes
B2: lactoferrin: lactoferrin (Lf), LRP ligand used as competitor (protein, UniProt P02788 20-710, looked up)
Lactotransferrin: GRRRSVQWCAVSQPEATKCFQWQRNMRKVRGPPVSCIKRDSPIQCIQAIAENRADAVTLDGGFIYEAGLAPYKLRPVAAEVYGTERQPRTHYYAVAVVKKGGSFQLNELQGLKSCHTGLRRTAGWNVPIGTLRPFLNWTGPPEPIEAAVARFFSASCVPGADKGQFPNLCRLCAGTGENKCAFSSQEPYFSYSGAFKCLRDGAGDVAFIRESTVFEDLSDEAERDEYELLCPDNTRKPVDKFKDCHLARVPSHAVVARSVNGKEDAIWNLLRQAQEKFGKDKSPKFQLFGSPSGQKDLLFKDSAIGFSRVPPRIDSGLYLGSGYFTAIQNLRKSEEEVAARRARVVWCAVGEQELRKCNQWSGLSEGSVTCSSASTTEDCIALVLKGEADAMSLDGGYVYTAGKCGLVPVLAENYKSQQSSDPDPNCVDRPVEGYLAVAVVRRSDTSLTWNSVKGKKSCHTAVDRTAGWNIPMGLLFNQTGSCKFDEYFSQSCAPGSDPRSNLCALCIGDEQGENKCVPNSNERYYGYTGAFRCLAENAGDVAFVKDVTVLQNTDGNNNEAWAKDLKLADFALLCLDGKRKPVTEARSCHLAMAPNHAVVSRMDKVERLKQVLLHQQAKFGRNGSDCPDKFCLFQSETKNLLFNDNTECLARLHGKTTYEKYLGPQYVAGITNLKKCSTSPLLEACEFLRK
Inhibition of [125I]-p97 binding to BBCECs [1]: competitively inhibited

— patent publication US7977317B2, “Compositions and methods for modulating blood-brain barrier transport” (Raptor Pharmaceutical Inc., priority 2001, dated 2011)
